Measured values reported in US20240417469A1 (CONCEPT TO MEDICINE BIOTECH, published 2024).
Positions count from the first letter of the chain named.

B1: Hu153A6B1-10 (antibody, V domains shown)
VH: EVQLQESGPGLVKPSETLSLTCTVSGGSISSYNIHWVRQPPGKGLEWMGRIRYNGDTSYNSALKSRLTISRDTSKNQFSLKLSSVTAADTAVYYCTRGPYGGSREPLFDYWGQGTMVTVSS
VL: DIQMTQSPSSLSASVGDRVTITCKTSQNINKYLNWFQQKPGKAPKLLIYTTNNLQTGIPSRFSGSGSGTDFTLTISSLQPEDFATYYCLQHGSGYTFGQGTKLEIK
notes: humanized mAb
B2: Hu155A9B1-2 (antibody, V domains shown)
VH: B1 VH with I34V, M48I, I51V, L67V, T96A, R104S
VL: B1 VL with T25A, F36Y, K45R, I58V, G92N
notes: humanized mAb
B3: Hu155A9B1-14 (antibody, V domains shown)
VH: B1 VH with I34V, M48I, I51V, L67V, T96A, R104S
VL: B1 VL with T25A, K45R, Y87F, G92N
notes: humanized mAb
B4: Hu155A9B1-17 (antibody, V domains shown)
VH: B1 VH with G27F, I34V, I51V, F78A, R104S
VL: B1 VL with T25A, K45R, Y87F, G92N
notes: humanized mAb
B5: Hu155A9B1-4 (antibody, V domains shown)
VH: B1 VH with I34V, I51V, R104S
VL: B1 VL with T25A, F36Y, K45R, I58V, G92N
notes: humanized mAb
B6: Hu155A9B1-5 (antibody, V domains shown)
VH: B1 VH with G27F, I34V, I51V, F78A, R104S
VL: B1 VL with T25A, F36Y, K45R, I58V, G92N
notes: humanized mAb; also called 155z5
B7: Hu153A6B1-14 (antibody, V domains shown)
VH: B1 VH with M48I, L67V, T96A
VL: B1 VL with Y87F
notes: humanized mAb
B8: Hu155A9B1-11 (antibody, V domains shown)
VH: B1 VH with G27F, I34V, I51V, F78A, R104S
VL: B1 VL with T25A, K45R, G92N
notes: humanized mAb
B9: Hu153A6B1-16 (antibody, V domains shown)
VH: B1 VH
VL: B1 VL with Y87F
notes: humanized mAb
B10: Hu153A6B1-15 (antibody, V domains shown)
VH: B1 VH with T96A
VL: B1 VL with Y87F
notes: humanized mAb
B11: Hu155A9B1-7 (antibody, V domains shown)
VH: B1 VH with I34V, V37I, M48I, I51V, L67V, R71V, T96A, R104S
VL: B1 VL with T25A, K45R, G92N
notes: humanized mAb
B12: Hu155A9B1-13 (antibody, V domains shown)
VH: B1 VH with I34V, V37I, M48I, I51V, L67V, R71V, T96A, R104S
VL: B1 VL with T25A, K45R, Y87F, G92N
notes: humanized mAb
B13: Hu155A9B1-8 (antibody, V domains shown)
VH: B1 VH with I34V, M48I, I51V, L67V, T96A, R104S
VL: B1 VL with T25A, K45R, G92N
notes: humanized mAb; also called 155z8
B14: Hu153A6B1-11 (antibody, V domains shown)
VH: B1 VH with G27F, F78V
VL: B1 VL
notes: humanized mAb
B15: Hu155A9B1-12 (antibody, V domains shown)
VH: B1 VH with G27F, I29L, S30T, I34V, I51V, F78A, R104S
VL: B1 VL with T25A, K45R, G92N
notes: humanized mAb
B16: Hu153A6B1-18 (antibody, V domains shown)
VH: B1 VH with G27F, I29L, S30T, F78V
VL: B1 VL with Y87F
notes: humanized mAb
B17: Hu155A9B1-1 (antibody, V domains shown)
VH: B1 VH with I34V, V37I, M48I, I51V, L67V, R71V, T96A, R104S
VL: B1 VL with T25A, F36Y, K45R, I58V, G92N
notes: humanized mAb
B18: Hu155A9B1-9 (antibody, V domains shown)
VH: B1 VH with I34V, I51V, T96A, R104S
VL: B1 VL with T25A, K45R, G92N
notes: humanized mAb
B19: Hu155A9B1-18 (antibody, V domains shown)
VH: B1 VH with G27F, I29L, S30T, I34V, I51V, F78A, R104S
VL: B1 VL with T25A, K45R, Y87F, G92N
notes: humanized mAb
B20: Hu153A6B1-17 (antibody, V domains shown)
VH: B1 VH with G27F, F78V
VL: B1 VL with Y87F
notes: humanized mAb
B21: Hu153A6B1-13 (antibody, V domains shown)
VH: B1 VH with V37I, M48I, L67V, R71V, T96A
VL: B1 VL with Y87F
notes: humanized mAb
B22: Hu155A9B1-15 (antibody, V domains shown)
VH: B1 VH with I34V, I51V, T96A, R104S
VL: B1 VL with T25A, K45R, Y87F, G92N
notes: humanized mAb
B23: Hu153A6B1-12 (antibody, V domains shown)
VH: B1 VH with G27F, I29L, S30T, F78V
VL: B1 VL
notes: humanized mAb
B24: Hu155A9B1-10 (antibody, V domains shown)
VH: B1 VH with I34V, I51V, R104S
VL: B1 VL with T25A, K45R, G92N
notes: humanized mAb
B25: Hu155A9B1-16 (antibody, V domains shown)
VH: B1 VH with I34V, I51V, R104S
VL: B1 VL with T25A, K45R, Y87F, G92N
notes: humanized mAb; also called 155z16

Assays:
[1] = molecular target: T1, human CD3 on cells (human PBMC; Jurkat TCR/CD3 NFAT reporter cells) (human, UniProt P07766 23-207; P04234 22-171; P09693 23-182); test: cell-based or functional assay
[2] = molecular target: T1, human CD3 on cells (human PBMC; Jurkat …); test: cell-based or functional assay; remark: listed apart in the source
human CD3 protein = molecular target: T2, human CD3 protein (human, UniProt P07766 23-126; P04234 22-105); test: ELISA, plate-coated CD3;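 also: binding to plate-immobilized human CD3 protein, bound antibody detected with peroxidase-labelled anti-human IgG and TMB, read as absorbance at 450 nm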
T2 construct: ELISA coating protein; also called Human CD3D & CD3E Heterodimer Protein

[3] = molecular target: T3, recombinant CD3D&E protein (human CD3-his tag) (human, UniProt P04234 22-105; P07766 23-126, limits assumed); test: SPR Biacore, Ab captured on Protein A;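 also: humanized antibodies on a Protein A chip, human CD3-his analyte flowed over in serial dilutions for 3 min, dissociation tracked 120–360 s on a Biacore T200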
T3 construct: Analyte in Biacore; also called CD3D&E-His; CD3d&ε-His
For Emax in this document: unit not given here.

T3 sequence (P04234 22-105 limits assumed, chain 1 of 2): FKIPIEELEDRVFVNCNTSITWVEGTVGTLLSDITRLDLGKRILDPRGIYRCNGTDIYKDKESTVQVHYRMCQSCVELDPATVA
T3 sequence (P07766 23-126 limits assumed, chain 2 of 2): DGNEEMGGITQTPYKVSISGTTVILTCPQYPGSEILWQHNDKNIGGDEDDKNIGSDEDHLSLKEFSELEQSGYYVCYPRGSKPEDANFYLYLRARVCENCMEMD
T1 sequence (P07766 23-207, chain 1 of 3): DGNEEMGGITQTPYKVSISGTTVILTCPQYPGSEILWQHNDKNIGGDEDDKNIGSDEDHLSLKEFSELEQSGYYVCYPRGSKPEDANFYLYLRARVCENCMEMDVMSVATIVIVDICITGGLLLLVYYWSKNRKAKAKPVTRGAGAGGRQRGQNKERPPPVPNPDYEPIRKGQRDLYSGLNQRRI
T1 sequence (P04234 22-171, chain 2 of 3): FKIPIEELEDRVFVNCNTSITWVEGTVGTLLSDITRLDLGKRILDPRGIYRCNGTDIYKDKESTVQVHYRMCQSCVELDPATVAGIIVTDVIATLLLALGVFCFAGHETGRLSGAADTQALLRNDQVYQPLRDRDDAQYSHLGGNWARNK
T1 sequence (P09693 23-182, chain 3 of 3): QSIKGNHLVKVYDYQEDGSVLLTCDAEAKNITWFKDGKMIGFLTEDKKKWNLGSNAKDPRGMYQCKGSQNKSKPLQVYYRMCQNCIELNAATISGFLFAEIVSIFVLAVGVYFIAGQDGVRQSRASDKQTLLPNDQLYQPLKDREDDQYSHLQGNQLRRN
T2 sequence (P07766 23-126 limits assumed, chain 1 of 2): as the sequence (P07766 23-126 limits assumed, chain 2 of 2) above
T2 sequence (P04234 22-105 limits assumed, chain 2 of 2): as the sequence (P04234 22-105 limits assumed, chain 1 of 2) above

| Binder | % of SP34 [1] [%] | Emax [1] | CD3-NFAT Activity by CD3 mAb [2] [% SP34] | EC50 (human CD3 protein) [ng/mL] | Kd [3] [nM] | koff [3] [s⁻¹] | kon [3] [M⁻¹ s⁻¹] |
| --- | --- | --- | --- | --- | --- | --- | --- |
| B1 | 73.9 | 4080 | > 50 | 3.44 | 70.5 | 0.0568 | 806000 |
| B2 | 12.9 | 656 | ≤ 50 | 26.4 | 15.8 | 0.00704 | 445000 |
| B3 | 19.1 | 1100 | ≤ 50 | 5.66 | 79.2 | 0.0187 | 236000 |
| B4 | 76 | 4370 | > 50 | 3.07 | 43.6 | 0.00307 | 70400 |
| B5 | 14.8 | 752 | ≤ 50 | 16.4 | 15.8 | 0.00648 | 409000 |
| B6 | 79.9 | 4050 | > 50 | 3.27 | 61.4 | 0.00637 | 104000 |
| B7 | 74.9 | 4140 | > 50 | 3.06 | 51.7 | 0.053 | 1.02e+06 |
| B8 | 78.4 | 4500 | > 50 | 3.2 | 44.1 | 0.00306 | 69300 |
| B9 | 71.9 | 3970 | > 50 | 3.44 | 61.9 | 0.111 | 1.8e+06 |
| B10 | 75.2 | 4150 | > 50 | 3.03 | 76.2 | 0.0151 | 198000 |
| B11 | 22.6 | 1140 | ≤ 50 | 136 | 13.5 | 0.00547 | 406000 |
| B12 | 18.4 | 1060 | ≤ 50 | 124 | 12.6 | 0.00354 | 280000 |
| B13 | 26.2 | 1330 | ≤ 50 | 5.84 | 70.2 | 0.0159 | 226000 |
| B14 | 81 | 4470 | > 50 | 3.05 | 11.4 | 0.00106 | 93000 |
| B15 | 72.4 | 4160 | > 50 | 3.35 | 51.2 | 0.00286 | 55900 |
| B16 | 88.8 | 4900 | > 50 | 2.82 | 12.5 | 0.00107 | 85400 |
| B17 | 14.2 | 720 | ≤ 50 | 428 | 40.4 | 0.00441 | 109000 |
| B18 | 34.9 | 1770 | ≤ 50 | 6.28 | 55 | 0.0155 | 282000 |
| B19 | 74 | 4250 | > 50 | 1.95 | 51.4 | 0.00291 | 56600 |
| B20 | 77.2 | 4260 | > 50 | 2.89 | 11.1 | 0.00106 | 95400 |
| B21 | 23.2 | 1280 | ≤ 50 | 6.38 | 29.6 | 0.0103 | 349000 |
| B22 | 20.1 | 1150 | ≤ 50 | 6.51 | 53.5 | 0.0152 | 285000 |
| B23 | 87.5 | 4830 | > 50 | 2.69 | 13.5 | 0.00107 | 79400 |
| B24 | 24 | 1380 | ≤ 50 | 6.04 | 80.5 | 0.015 | 187000 |
| B25 | 21.6 | 1240 | ≤ 50 | 7.28 | 95.6 | 0.0165 | 173000 |
